Columns and labels:
LGR5 [1] = molecular target: T1, LGR5 (UniProt O75473 22-907, limits assumed); assay: cell-based or functional assay
T1 sequence (looked up): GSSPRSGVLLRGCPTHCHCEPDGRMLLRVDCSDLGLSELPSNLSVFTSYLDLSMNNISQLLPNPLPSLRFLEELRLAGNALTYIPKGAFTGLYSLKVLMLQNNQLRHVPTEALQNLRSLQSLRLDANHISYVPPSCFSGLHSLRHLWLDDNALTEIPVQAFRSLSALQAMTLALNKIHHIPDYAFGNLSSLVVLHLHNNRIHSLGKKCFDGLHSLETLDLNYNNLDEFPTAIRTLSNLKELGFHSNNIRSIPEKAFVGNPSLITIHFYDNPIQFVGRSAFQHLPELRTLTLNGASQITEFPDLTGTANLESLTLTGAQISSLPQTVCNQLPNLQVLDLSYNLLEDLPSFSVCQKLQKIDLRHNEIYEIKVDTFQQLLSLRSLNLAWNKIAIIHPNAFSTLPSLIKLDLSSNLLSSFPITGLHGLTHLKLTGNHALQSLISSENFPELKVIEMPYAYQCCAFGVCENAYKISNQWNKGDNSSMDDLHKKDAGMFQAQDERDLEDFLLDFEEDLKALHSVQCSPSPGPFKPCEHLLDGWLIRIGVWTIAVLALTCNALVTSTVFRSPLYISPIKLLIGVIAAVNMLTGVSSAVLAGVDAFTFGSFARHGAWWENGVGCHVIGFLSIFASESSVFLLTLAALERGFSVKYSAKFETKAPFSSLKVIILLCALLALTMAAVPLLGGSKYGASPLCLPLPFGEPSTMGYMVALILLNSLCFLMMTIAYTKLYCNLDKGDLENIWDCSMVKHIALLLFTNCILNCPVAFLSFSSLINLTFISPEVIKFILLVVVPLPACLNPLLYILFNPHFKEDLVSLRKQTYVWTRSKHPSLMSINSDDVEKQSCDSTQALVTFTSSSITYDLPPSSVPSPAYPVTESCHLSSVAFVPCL

LGR5 [2] = molecular target: T1, LGR5; assay: cell-based or functional assay; remark: listed apart in the source

B1: FcF2Δlinker-MMAE (Fc fusion)
chain: EPKSCDKTHTCPPCPAPELLGGPSVFLFPPKPKDTLMISRTPEVTCVVVDVSHEDPEVKFNWYVDGVEVHNAKTKPREEQYNSTYRVVSVLTVDHHDWLNGKEYKCKVSNKALPAPIEKTISKAKGQPREPQVYTLPPSRDELTKNQVSLTCLVKGFYPSDIAVEWESNGQPENNYKTTPPVLDSDGSFFLYSKLTVDKSRWQQGNVFSCSVMHEALHSHYTQKSLSLSPGKSRGIKGKRQRRISAEGSQACAKGCELCSEVNGCLKCSPKLFILLERNDIRQVGVCLPSCPPGYFDARNPDMNKCIKCKIEHCEACFSHNFCTKCKEGLYLHKGRCYPACPEGSSAANGTMECSSPLPETGGG
modifications: C-terminal GGG carries valine-citrulline-PAB-MMAE
IC50 (read off the curve), growth inhibition of OVCAR8/LGR5 cells [panel ExpiCHO FcF2-MMAE linker deletion batch #1] (LGR5 [1]): ~4 nM

B2: FcF2-deruxtecan (Fc fusion)
chain: EPKSCDKTHTCPPCPAPELLGGPSVFLFPPKPKDTLMISRTPEVTCVVVDVSHEDPEVKFNWYVDGVEVHNAKTKPREEQYNSTYRVVSVLTVDHHDWLNGKEYKCKVSNKALPAPIEKTISKAKGQPREPQVYTLPPSRDELTKNQVSLTCLVKGFYPSDIAVEWESNGQPENNYKTTPPVLDSDGSFFLYSKLTVDKSRWQQGNVFSCSVMHEALHSHYTQKSLSLSPGKGGGGSGGGGSSRGIKGKRQRRISAEGSQACAKGCELCSEVNGCLKCSPKLFILLERNDIRQVGVCLPSCPPGYFDARNPDMNKCIKCKIEHCEACFSHNFCTKCKEGLYLHKGRCYPACPEGSSAANGTMECSSPGGGGSGGGGSLPETGGGC
modifications: C-terminal Cys of GGGC carries maleimide-GGFG-deruxtecan
IC50 of growth inhibition, OVCAR8/EV cells (LGR5-poor control; CCK8, 120 h) (LGR5 [2]): 9.04 nM
IC50 of growth inhibition, OVCAR8/LGR5 cells (CCK8, 120 h) (LGR5 [2]): 0.753 nM
selectivity, OVCAR8/LGR5 against OVCAR8/EV (LGR5 [2]): 12 fold

B3: FcST4-MMAE (Fc fusion)
chain: EPKSCDKTHTCPPCPAPELLGGPSVFLFPPKPKDTLMISRTPEVTCVVVDVSHEDPEVKFNWYVDGVEVHNAKTKPREEQYNSTYRVVSVLTVDHHDWLNGKEYKCKVSNKALPAPIEKTISKAKGQPREPQVYTLPPSRDELTKNQVSLTCLVKGFYPSDIAVEWESNGQPENNYKTTPPVLDSDGSFFLYSKLTVDKSRWQQGNVFSCSVMHEALHSHYTQKSLSLSPGKGGGGSGGGGSSRGIKGKRQRRISAEGSQACAKGCELCSEVNGCLKCSPKLFILLERNDIRQVGVCLPSCPPGYFDARNPDMNKCIKCKIEHCEACFSHNFCTKCKEGLYLHKGRCYPACPEGSSAANGTMECSSPGGGGSGGGGSSRGIKGKRQRRISAEGSQACAKGCELCSEVNGCLKCSPKLFILLERNDIRQVGVCLPSCPPGYFDARNPDMNKCIKCKIEHCEACFSHNFCTKCKEGLYLHKGRCYPACPEGSSAANGTMECSSPGGGGSGGGGSLPETGGG
modifications: C-terminal GGG carries val-cit-PAB-MMAE (sortase reaction with G3-val-cit-PAB-MMAE; GG-8xHis removed)
IC50 of cytotoxicity (OVCAR8 empty vector and LGR5-overexpressing cells; the cell line of each end is not stated) (LGR5 [2]): 1.9 to 3.8 nM

B4: FcF2-PNU159682 (Fc fusion)
chain: EPKSCDKTHTCPPCPAPELLGGPSVFLFPPKPKDTLMISRTPEVTCVVVDVSHEDPEVKFNWYVDGVEVHNAKTKPREEQYNSTYRVVSVLTVDHHDWLNGKEYKCKVSNKALPAPIEKTISKAKGQPREPQVYTLPPSRDELTKNQVSLTCLVKGFYPSDIAVEWESNGQPENNYKTTPPVLDSDGSFFLYSKLTVDKSRWQQGNVFSCSVMHEALHSHYTQKSLSLSPGKGGGGSGGGGSSRGIKGKRQRRISAEGSQACAKGCELCSEVNGCLKCSPKLFILLERNDIRQVGVCLPSCPPGYFDARNPDMNKCIKCKIEHCEACFSHNFCTKCKEGLYLHKGRCYPACPEGSSAANGTMECSSPGGGGSGGGGSLPET
modifications: PNU159682 (anthracycline derivative) joined to the C-terminus by sortase A; the linker is not described
IC50 of growth inhibition, OVCAR8/EV cells (LGR5-poor control) (LGR5 [2]): > 3000 pM
IC50 of growth inhibition, OVCAR8/LGR5 cells (LGR5 [2]): 300 pM
IC50 ratio, OVCAR8/EV to OVCAR8/LGR5 (LGR5 [2]): ~10 ratio
